Test system: Escherichia coli TOP10
Experiment: shrunken log2 fold change of peptide-encoding DNA abundance (4.5 h post-induction vs induction); higher = less antimicrobial activity (less host growth inhibition)
Settings: time post-induction: 4.5 h; library: site-saturation at positions 5, 18, 19, 20
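Also: peptides expressed intracellularly from a pBAD plasmid library in pooled LB shake-flask culture, induced with 0.3% L-arabinose, DNA abundance read by NGS, three biological replicates, DESeq2 with apeglm shrinkage.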

Sequence: RRIRLRPPRLPRPRPRPHHRPRP
- shrunken log2 fold change: -0.263

Sequence: RRIRLRPPRLPRPRPRPDPYPRP
- shrunken log2 fold change: 0.0541

Sequence: RRIRVRPPRLPRPRPRPDKDPRP
- shrunken log2 fold change: -0.337

Sequence: RRIRPRPPRLPRPRPRPAWDPRP
- shrunken log2 fold change: 0.431

Sequence: RRIRHRPPRLPRPRPRPGMYPRP
- shrunken log2 fold change: -0.298

Sequence: RRIRSRPPRLPRPRPRPVYWPRP
- shrunken log2 fold change: -0.175

Sequence: RRIRQRPPRLPRPRPRPHFQPRP
- shrunken log2 fold change: -0.108

Sequence: RRIRKRPPRLPRPRPRPQPVPRP
- shrunken log2 fold change: 0.095

Sequence: RRIRDRPPRLPRPRPRPWVRPRP
- shrunken log2 fold change: -0.21

Sequence: RRIRRRPPRLPRPRPRPICGPRP
- shrunken log2 fold change: -0.0231

Sequence: RRIRLRPPRLPRPRPRPMRWPRP
- shrunken log2 fold change: 0.278

Sequence: RRIRDRPPRLPRPRPRPFWTPRP
- shrunken log2 fold change: -0.116

Sequence: RRIRNRPPRLPRPRPRPKGRPRP
- shrunken log2 fold change: 0.0238

Sequence: RRIRHRPPRLPRPRPRPGHPPRP
- shrunken log2 fold change: -0.00757

Sequence: RRIRWRPPRLPRPRPRPTYFPRP
- shrunken log2 fold change: -0.359

Sequence: RRIRMRPPRLPRPRPRPRQNPRP
- shrunken log2 fold change: 0.62

Sequence: RRIRVRPPRLPRPRPRPEMDPRP
- shrunken log2 fold change: 0.111

Sequence: RRIRHRPPRLPRPRPRPESVPRP
- shrunken log2 fold change: 0.0222

Sequence: RRIRSRPPRLPRPRPRPSFMPRP
- shrunken log2 fold change: -0.335

Sequence: RRIRMRPPRLPRPRPRPCCFPRP
- shrunken log2 fold change: 0.116

Sequence: RRIRNRPPRLPRPRPRPTSPPRP
- shrunken log2 fold change: 0.113

Sequence: RRIRSRPPRLPRPRPRPSTQPRP
- shrunken log2 fold change: 2.48

Sequence: RRIRKRPPRLPRPRPRPNFCPRP
- shrunken log2 fold change: -0.0549

Sequence: RRIRARPPRLPRPRPRPAGEPRP
- shrunken log2 fold change: 0.921

Sequence: RRIRQRPPRLPRPRPRPSLSPRP
- shrunken log2 fold change: -0.227

Sequence: RRIRFRPPRLPRPRPRPHYPPRP
- shrunken log2 fold change: -0.178

Sequence: RRIRVRPPRLPRPRPRPCNEPRP
- shrunken log2 fold change: -0.0213

Sequence: RRIRMRPPRLPRPRPRPVMQPRP
- shrunken log2 fold change: -0.221

Sequence: RRIRMRPPRLPRPRPRPPAVPRP
- shrunken log2 fold change: 1.44

Sequence: RRIRARPPRLPRPRPRPNYSPRP
- shrunken log2 fold change: -0.502

Sequence: RRIRIRPPRLPRPRPRPFLPPRP
- shrunken log2 fold change: -0.4

Sequence: RRIRNRPPRLPRPRPRPNHVPRP
- shrunken log2 fold change: -0.117

Sequence: RRIRKRPPRLPRPRPRPKTMPRP
- shrunken log2 fold change: 0.185

Sequence: RRIRRRPPRLPRPRPRPAMGPRP
- shrunken log2 fold change: 0.142

Sequence: RRIRKRPPRLPRPRPRPWPMPRP
- shrunken log2 fold change: 0.915

Sequence: RRIRARPPRLPRPRPRPDCNPRP
- shrunken log2 fold change: 0.606

Sequence: RRIRERPPRLPRPRPRPTKAPRP
- shrunken log2 fold change: 0.043

Sequence: RRIRGRPPRLPRPRPRPWYFPRP
- shrunken log2 fold change: -0.417

Sequence: RRIRPRPPRLPRPRPRPHPHPRP
- shrunken log2 fold change: 0.0281

Sequence: RRIRQRPPRLPRPRPRPMEFPRP
- shrunken log2 fold change: 0.0663

Sequence: RRIRQRPPRLPRPRPRPGRQPRP
- shrunken log2 fold change: 0.021

Sequence: RRIRERPPRLPRPRPRPGCKPRP
- shrunken log2 fold change: 0.0591

Sequence: RRIRDRPPRLPRPRPRPSNHPRP
- shrunken log2 fold change: -0.548

Sequence: RRIRLRPPRLPRPRPRPHSPPRP
- shrunken log2 fold change: -0.252

Sequence: RRIRQRPPRLPRPRPRPMLWPRP
- shrunken log2 fold change: -0.00459

Sequence: RRIRGRPPRLPRPRPRPLICPRP
- shrunken log2 fold change: 0.147

Sequence: RRIRLRPPRLPRPRPRPPPAPRP
- shrunken log2 fold change: 1.52

Sequence: RRIRDRPPRLPRPRPRPWHFPRP
- shrunken log2 fold change: -0.01

Sequence: RRIRNRPPRLPRPRPRPFHFPRP
- shrunken log2 fold change: -0.359

Sequence: RRIRKRPPRLPRPRPRPLVSPRP
- shrunken log2 fold change: 0.0109

Sequence: RRIRRRPPRLPRPRPRPGFRPRP
- shrunken log2 fold change: 0.331

Sequence: RRIRERPPRLPRPRPRPHDAPRP
- shrunken log2 fold change: -0.437

Sequence: RRIRWRPPRLPRPRPRPPEMPRP
- shrunken log2 fold change: 0.812

Sequence: RRIRCRPPRLPRPRPRPCTGPRP
- shrunken log2 fold change: -0.307

Sequence: RRIRFRPPRLPRPRPRPKGLPRP
- shrunken log2 fold change: -0.146

Sequence: RRIRPRPPRLPRPRPRPIMMPRP
- shrunken log2 fold change: -0.199

Sequence: RRIRTRPPRLPRPRPRPHLMPRP
- shrunken log2 fold change: -0.139

Sequence: RRIRCRPPRLPRPRPRPIQNPRP
- shrunken log2 fold change: -0.538

Sequence: RRIRRRPPRLPRPRPRPWYYPRP
- shrunken log2 fold change: -0.293

Sequence: RRIRSRPPRLPRPRPRPFEEPRP
- shrunken log2 fold change: -0.345

Sequence: RRIRTRPPRLPRPRPRPEWIPRP
- shrunken log2 fold change: 0.0842

Sequence: RRIRMRPPRLPRPRPRPDRQPRP
- shrunken log2 fold change: 0.239

Sequence: RRIRCRPPRLPRPRPRPWWGPRP
- shrunken log2 fold change: 0.0769

Sequence: RRIRKRPPRLPRPRPRPKQNPRP
- shrunken log2 fold change: 0.706

Sequence: RRIRARPPRLPRPRPRPHIQPRP
- shrunken log2 fold change: -0.164

Sequence: RRIRRRPPRLPRPRPRPWEFPRP
- shrunken log2 fold change: 0.00288

Sequence: RRIRRRPPRLPRPRPRPKTIPRP
- shrunken log2 fold change: 0.0447

Sequence: RRIRQRPPRLPRPRPRPCEKPRP
- shrunken log2 fold change: -0.00192

Sequence: RRIRLRPPRLPRPRPRPLVIPRP
- shrunken log2 fold change: -0.33

Sequence: RRIRERPPRLPRPRPRPVARPRP
- shrunken log2 fold change: -0.168

Sequence: RRIRLRPPRLPRPRPRPIGKPRP
- shrunken log2 fold change: -0.335

Sequence: RRIRGRPPRLPRPRPRPCRLPRP
- shrunken log2 fold change: 0.123

Sequence: RRIRERPPRLPRPRPRPFYPPRP
- shrunken log2 fold change: -0.834

Sequence: RRIRRRPPRLPRPRPRPTRCPRP
- shrunken log2 fold change: 0.661

Sequence: RRIRDRPPRLPRPRPRPHGGPRP
- shrunken log2 fold change: 0.0317

Sequence: RRIRHRPPRLPRPRPRPGMEPRP
- shrunken log2 fold change: -0.0685

Sequence: RRIRVRPPRLPRPRPRPAMIPRP
- shrunken log2 fold change: -0.07

Sequence: RRIRQRPPRLPRPRPRPDDRPRP
- shrunken log2 fold change: -0.000777

Sequence: RRIRLRPPRLPRPRPRPLVRPRP
- shrunken log2 fold change: -0.105

Sequence: RRIRRRPPRLPRPRPRPTWTPRP
- shrunken log2 fold change: 0.464

Sequence: RRIRTRPPRLPRPRPRPAPLPRP
- shrunken log2 fold change: 0.368

Sequence: RRIRMRPPRLPRPRPRPVNTPRP
- shrunken log2 fold change: 0.0779

Sequence: RRIRPRPPRLPRPRPRPDSIPRP
- shrunken log2 fold change: -0.598

Sequence: RRIRERPPRLPRPRPRPGEAPRP
- shrunken log2 fold change: 0.139

Sequence: RRIRFRPPRLPRPRPRPFSGPRP
- shrunken log2 fold change: -0.0879

Sequence: RRIRNRPPRLPRPRPRPTVWPRP
- shrunken log2 fold change: 0.563

Sequence: RRIRFRPPRLPRPRPRPWHDPRP
- shrunken log2 fold change: 0.0237

Sequence: RRIRPRPPRLPRPRPRPKRTPRP
- shrunken log2 fold change: 0.0584

Sequence: RRIRNRPPRLPRPRPRPEYFPRP
- shrunken log2 fold change: -0.0135

Sequence: RRIRNRPPRLPRPRPRPGMDPRP
- shrunken log2 fold change: -0.0895

Sequence: RRIRLRPPRLPRPRPRPYYVPRP
- shrunken log2 fold change: -0.0539

Sequence: RRIRNRPPRLPRPRPRPRCEPRP
- shrunken log2 fold change: 0.357

Sequence: RRIRFRPPRLPRPRPRPVHAPRP
- shrunken log2 fold change: 0.184

Sequence: RRIRSRPPRLPRPRPRPCQKPRP
- shrunken log2 fold change: 0.185

Sequence: RRIRGRPPRLPRPRPRPPKTPRP
- shrunken log2 fold change: 1.15

Sequence: RRIRNRPPRLPRPRPRPALTPRP
- shrunken log2 fold change: -0.158

Sequence: RRIRVRPPRLPRPRPRPRMYPRP
- shrunken log2 fold change: -0.882

Sequence: RRIRMRPPRLPRPRPRPNPQPRP
- shrunken log2 fold change: 0.279

Sequence: RRIRFRPPRLPRPRPRPNTSPRP
- shrunken log2 fold change: -0.307

Sequence: RRIRKRPPRLPRPRPRPGCCPRP
- shrunken log2 fold change: 0.722

Sequence: RRIRLRPPRLPRPRPRPESNPRP
- shrunken log2 fold change: 0.0589

Sequence: RRIRIRPPRLPRPRPRPHIPPRP
- shrunken log2 fold change: -0.482

Sequence: RRIRSRPPRLPRPRPRPGSNPRP
- shrunken log2 fold change: -0.00709

Sequence: RRIRSRPPRLPRPRPRPLFVPRP
- shrunken log2 fold change: -0.188

Sequence: RRIRIRPPRLPRPRPRPTEGPRP
- shrunken log2 fold change: 0.00534

Sequence: RRIRMRPPRLPRPRPRPGKMPRP
- shrunken log2 fold change: 0.137

Sequence: RRIRLRPPRLPRPRPRPEEEPRP
- shrunken log2 fold change: -0.00112

Sequence: RRIRMRPPRLPRPRPRPSTEPRP
- shrunken log2 fold change: 1.63

Sequence: RRIRGRPPRLPRPRPRPYYWPRP
- shrunken log2 fold change: -0.25

Sequence: RRIRPRPPRLPRPRPRPTVHPRP
- shrunken log2 fold change: -0.0233

Sequence: RRIRPRPPRLPRPRPRPHDMPRP
- shrunken log2 fold change: -1.48

Sequence: RRIRMRPPRLPRPRPRPDMRPRP
- shrunken log2 fold change: 0.0245

Sequence: RRIRNRPPRLPRPRPRPAYQPRP
- shrunken log2 fold change: -0.146

Sequence: RRIRCRPPRLPRPRPRPLMFPRP
- shrunken log2 fold change: -0.433

Sequence: RRIRHRPPRLPRPRPRPSTGPRP
- shrunken log2 fold change: -0.24

Sequence: RRIRMRPPRLPRPRPRPTKGPRP
- shrunken log2 fold change: 0.258

Sequence: RRIRLRPPRLPRPRPRPISPPRP
- shrunken log2 fold change: -0.333

Sequence: RRIRFRPPRLPRPRPRPCKCPRP
- shrunken log2 fold change: -0.317

Sequence: RRIRVRPPRLPRPRPRPKCYPRP
- shrunken log2 fold change: 0.0107

Sequence: RRIRFRPPRLPRPRPRPLNIPRP
- shrunken log2 fold change: -0.594

Sequence: RRIRHRPPRLPRPRPRPIQNPRP
- shrunken log2 fold change: -0.252

Sequence: RRIRWRPPRLPRPRPRPWDEPRP
- shrunken log2 fold change: -0.106

Sequence: RRIRFRPPRLPRPRPRPRLCPRP
- shrunken log2 fold change: 0.276

Sequence: RRIRGRPPRLPRPRPRPIPAPRP
- shrunken log2 fold change: 0.913

Sequence: RRIRPRPPRLPRPRPRPNRMPRP
- shrunken log2 fold change: -0.138

Sequence: RRIRHRPPRLPRPRPRPTGYPRP
- shrunken log2 fold change: -0.0185

Sequence: RRIRNRPPRLPRPRPRPALCPRP
- shrunken log2 fold change: -0.0208

Sequence: RRIRMRPPRLPRPRPRPKLSPRP
- shrunken log2 fold change: 0.982

Sequence: RRIRDRPPRLPRPRPRPCHFPRP
- shrunken log2 fold change: -0.105

Sequence: RRIRARPPRLPRPRPRPESQPRP
- shrunken log2 fold change: 0.454

Sequence: RRIRIRPPRLPRPRPRPEANPRP
- shrunken log2 fold change: -0.00444

Sequence: RRIRLRPPRLPRPRPRPFRYPRP
- shrunken log2 fold change: -0.021

Sequence: RRIRKRPPRLPRPRPRPMNHPRP
- shrunken log2 fold change: 0.395

Sequence: RRIRFRPPRLPRPRPRPPPLPRP
- shrunken log2 fold change: 1.38

Sequence: RRIRLRPPRLPRPRPRPNNLPRP
- shrunken log2 fold change: -0.177

Sequence: RRIRYRPPRLPRPRPRPDMFPRP
- shrunken log2 fold change: -0.0113

Sequence: RRIRQRPPRLPRPRPRPSDPPRP
- shrunken log2 fold change: 0.114

Sequence: RRIRARPPRLPRPRPRPYAHPRP
- shrunken log2 fold change: -0.149

Sequence: RRIRQRPPRLPRPRPRPNHDPRP
- shrunken log2 fold change: -0.509

Sequence: RRIRVRPPRLPRPRPRPDSKPRP
- shrunken log2 fold change: -0.34

Sequence: RRIRGRPPRLPRPRPRPSKHPRP
- shrunken log2 fold change: -0.0347

Sequence: RRIRQRPPRLPRPRPRPVFRPRP
- shrunken log2 fold change: -0.0986

Sequence: RRIRRRPPRLPRPRPRPDNRPRP
- shrunken log2 fold change: 0.0484

Sequence: RRIRWRPPRLPRPRPRPGIMPRP
- shrunken log2 fold change: 0.238

Sequence: RRIRLRPPRLPRPRPRPRQYPRP
- shrunken log2 fold change: -0.075

Sequence: RRIRRRPPRLPRPRPRPLSYPRP
- shrunken log2 fold change: -0.0226

Sequence: RRIRERPPRLPRPRPRPTVNPRP
- shrunken log2 fold change: -0.129

Sequence: RRIRCRPPRLPRPRPRPNFTPRP
- shrunken log2 fold change: -0.158

Sequence: RRIRVRPPRLPRPRPRPYNYPRP
- shrunken log2 fold change: -0.845

Sequence: RRIRMRPPRLPRPRPRPQGQPRP
- shrunken log2 fold change: 0.253

From the supplement of paper PMC9112550, “Optimization of the antimicrobial peptide Bac7 by deep mutational scanning” (BMC Biology, 2022)
